Biological target: natural cellular receptor for the adenoviral fiber on 293 cells (human (293 human line)) (UniProt P78310)
Test: cell-based or functional assay

Sequence of UniProt P78310 (P78310 20-365): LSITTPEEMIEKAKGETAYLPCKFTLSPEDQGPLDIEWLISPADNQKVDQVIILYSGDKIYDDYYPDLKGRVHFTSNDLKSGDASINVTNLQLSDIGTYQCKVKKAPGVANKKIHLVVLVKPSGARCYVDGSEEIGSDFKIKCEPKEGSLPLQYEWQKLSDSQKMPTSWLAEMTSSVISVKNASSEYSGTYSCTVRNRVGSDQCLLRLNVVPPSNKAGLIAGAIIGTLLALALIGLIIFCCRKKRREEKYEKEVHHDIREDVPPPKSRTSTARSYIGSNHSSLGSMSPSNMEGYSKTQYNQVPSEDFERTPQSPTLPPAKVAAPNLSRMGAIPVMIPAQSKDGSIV

native Ad5 fiber carried by the recombinant virus AdLacZ (from UniProt P11818 1-581)
degree of inhibition of infection of 293 cells with AdLacZ by recombinant Ad5 knob at 100 µg/ml (LacZ-positive cells): 95%

— patent US20040038205A1
